Measurements taken from patent US20190201479A1.

Target: IdsE of strain BB2000 with amino acids 147-169 (variable region) replaced by the equivalent sequence of IdsE from strain HI4320 (Proteus mirabilis strain BB2000; Proteus mirabilis strain HI4320)
Assay: cell-based or functional assay

Substance: IdsD from Proteus mirabilis strain BB2000 (variable region from BB2000)
- fold reduction in colony expansion of the 1:1 coswarm (donor CCS06 with CCS05-derived recipient producing DVR-BB and EVR-HI) against the monoculture swarm of the recipient: 3.12 fold
- fold reduction in colony expansion of the 1:1 coswarm (donor CCS06 with CCS05-derived recipient producing DVR-HI and EVR-HI) against the monoculture swarm of the recipient: 3.35 fold
